US10383919B1, “Fragments of growth hormone binding protein” (The University of the Sciences, priority 2013, dated 2019)
Where no end group is shown, it is not given here.

Legend:
[1] = target: T1, rhGH (Homo sapiens, UniProt P01241); test: Equilibrium dialysis of GHBP peptides against rhGH (12-14 kDa MWCO membrane, MICRO-BCA read-out of lower chamber); type: binding; conditions: 1:1 ratio of rhGH:peptide; 0.25 mg/ml hGH stock; starting peptide 11.36 uM; 37° C., 24 hours
T1 construct: purchased Bresagen, Adelaide, Australia
T1 sequence (P01241 27-217): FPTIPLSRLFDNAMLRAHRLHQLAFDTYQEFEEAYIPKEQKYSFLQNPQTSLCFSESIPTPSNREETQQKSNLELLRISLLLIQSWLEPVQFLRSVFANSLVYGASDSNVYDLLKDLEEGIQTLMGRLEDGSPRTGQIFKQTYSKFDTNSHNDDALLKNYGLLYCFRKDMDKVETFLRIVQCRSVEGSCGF
Procedure: Equilibrium Dialysis: High Throughput Equilibrium Dialysis was performed using the 96-well Micro-Equilibrium Dialysis Device HTD (HTDialysis, LLC, CT, USA) according to the supplier's directions. The dialysis membrane was a SPECTRA/POR cellulose ester membrane. We tested a 3.5-5 kDa Molecular Weight Cut-off (MWCO) SPECTRA/POR membrane and a 12-14 kDa Molecular Weight Cut-off (MWCO) SPECTRA/POR membrane for their ability to allow peptide equilibration. Peptides were added to the upper chamber of each well of both a 3.5-5 kDa MWCO and a 12-14 kDa MWCO membrane and incubated at 37° C. with shaking at 200 rpm for 24 hours. Concentration of the peptide in the upper and lower chamber was assayed using MICRO-BCA Assay (Pierce) according to the supplier's directions.
We then confirmed the ability of the 12-14 kDa MWCO membrane to retain the hGH. Lyophilized recombinant hGH (Bresagen, Adelaide, Australia) was dissolved in phosphate-buffered saline (PBS) plus 0.05% sodium azide. One-hundred uL of a 25 mg/mL solution plus 100 uL of PBS were added to the upper chamber of the micro-dialysis device fitted with a 12-14 kDa MWCO membrane and incubated at 37° C. with shaking at 200 rpm for 24 hours. Concentration of hGH in the upper and lower chamber was assayed using MICRO-BCA Assay (Pierce) according to the supplier's directions. […] We used the 12-14 kDa MWCO membrane for our binding assays.
The upper chamber of each well received 100 uL of 0.25 mg/ml hGH and 100 uL of a 22.72 uM peptide solution. The lower chamber of each well received 100 uL of buffer and 100 uL of a 22.72 uM peptide solution. Thus, the starting concentration of peptide in both the upper and lower portion of each well was 11.36 uM. Plates were incubated at 37° C., with shaking at 200 rpm for 24 hours. […] The assay was configured with a 1:2 sample: working reagent ratio and incubated 45° C. for 4 hours and read in a spectrophotometer at 562 nm. Concentrations of peptide in the lower chamber were determined based on the equations generated by the standard curves for each peptide. […]

[2] = cited from earlier work

concentration of peptide in the lower chamber in the presence of rhGH (binding to rhGH) [1] | Substance | half-life in the bloodstream [2]
substantially reduced | TSIWIPYCIGKCFSVDEIVQPD (TSIWIPYCIGKCFSVDEIVQPD; not fully specified; printed as Thr-Ser-Ile-Trp-Ile-Pro-Tyr-Cys-Ile-Gly-Lys-Cys-Phe-Ser-Val-Asp-Glu-Ile-Val-Gln-Pro-Asp; cysteine pairing not given here; listed as Homo sapiens) [Peptide 7, Peptide 5 & Peptide 6 bridged] | 
 | hGH: Human growth hormone (somatotropin or somatropin), a peptide hormone; recombinant hGH (Bresagen) was used in the binding assays | about fifteen
substantially reduced | S-P-E-R-E-T-F-S (SPERETFS; listed as Homo sapiens) [Peptide 1, hGHBP fragment Serine-40 to Serine-47] | 
substantially reduced | R-R-N-T-Q-E (RRNTQE; listed as Homo sapiens) [Peptide 3, hGHBP fragment Arginine-70 to Glutamate-76] | 
